Experiment [1] deals with T1, TG13.
T1 construct: also called Factor XIIIa
T1 chain: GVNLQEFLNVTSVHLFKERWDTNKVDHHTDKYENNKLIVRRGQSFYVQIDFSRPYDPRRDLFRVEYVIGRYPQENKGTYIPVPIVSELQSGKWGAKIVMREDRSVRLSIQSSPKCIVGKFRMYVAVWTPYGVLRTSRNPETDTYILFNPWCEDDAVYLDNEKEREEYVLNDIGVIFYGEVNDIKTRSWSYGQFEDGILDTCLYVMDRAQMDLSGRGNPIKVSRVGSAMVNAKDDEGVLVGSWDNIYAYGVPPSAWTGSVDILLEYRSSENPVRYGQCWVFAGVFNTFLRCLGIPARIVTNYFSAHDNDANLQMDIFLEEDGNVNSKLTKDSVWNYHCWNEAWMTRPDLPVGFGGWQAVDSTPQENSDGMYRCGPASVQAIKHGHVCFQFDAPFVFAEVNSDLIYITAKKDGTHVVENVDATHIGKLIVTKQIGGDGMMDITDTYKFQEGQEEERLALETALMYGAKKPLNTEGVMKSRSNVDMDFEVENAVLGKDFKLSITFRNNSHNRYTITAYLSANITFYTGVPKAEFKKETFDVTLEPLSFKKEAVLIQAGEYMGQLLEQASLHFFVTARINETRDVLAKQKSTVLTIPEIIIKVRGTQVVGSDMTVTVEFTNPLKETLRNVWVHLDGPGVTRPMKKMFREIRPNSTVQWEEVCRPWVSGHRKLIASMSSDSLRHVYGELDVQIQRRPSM
Description: ELISA, hybridoma conditioned medium, plates coated with recombinant TG (100 ng/well) [panel A]. The method, then:
Conditioned medium or purified IgG were tested for reactivity to transglutaminase family members. The ability of each to bind to each transglutaminase (TG1, TG2, TG3, TG5, TG7 and Factor XIIIa; all Zedira) was determined using a plate binding assay. Microtiter plates (Costar, Cambridge, UK) were coated with recombinant TG (Zedira, Darmstadt, Germany) in 50 μl of 0.1 M bicarbonate/carbonate buffer (pH 9.6) overnight at 4° C. Plates were blocked for 2 h at 37° C. with 200 μl PBS containing 3% w/v BSA. Plates were washed three times with PBS containing 0.05% Tween 20 (washing buffer) and 100 μl of diluted conditioned medium (dilution 1:5 to 1:20) or purified anti-TG2 catalytic core mAbs was added. Plates were incubated for a further 1 h at room temperature. The washing step was repeated and anti-mouse gamma chain-horseradish peroxidase (1:5000) in PBS containing 0.05% Tween 20 (v:v) and 1% BSA (w:v) (Sigma, Poole UK) was added for 1 h. […] The reaction was stopped by adding 25 μl of 0.1 M H_2SO_4 and the absorbance at 450 nm was determined.

Experiment [2] deals with T2, human transglutaminase type 2 (TG2) (human, UniProt P21980 1-687).
T2 sequence: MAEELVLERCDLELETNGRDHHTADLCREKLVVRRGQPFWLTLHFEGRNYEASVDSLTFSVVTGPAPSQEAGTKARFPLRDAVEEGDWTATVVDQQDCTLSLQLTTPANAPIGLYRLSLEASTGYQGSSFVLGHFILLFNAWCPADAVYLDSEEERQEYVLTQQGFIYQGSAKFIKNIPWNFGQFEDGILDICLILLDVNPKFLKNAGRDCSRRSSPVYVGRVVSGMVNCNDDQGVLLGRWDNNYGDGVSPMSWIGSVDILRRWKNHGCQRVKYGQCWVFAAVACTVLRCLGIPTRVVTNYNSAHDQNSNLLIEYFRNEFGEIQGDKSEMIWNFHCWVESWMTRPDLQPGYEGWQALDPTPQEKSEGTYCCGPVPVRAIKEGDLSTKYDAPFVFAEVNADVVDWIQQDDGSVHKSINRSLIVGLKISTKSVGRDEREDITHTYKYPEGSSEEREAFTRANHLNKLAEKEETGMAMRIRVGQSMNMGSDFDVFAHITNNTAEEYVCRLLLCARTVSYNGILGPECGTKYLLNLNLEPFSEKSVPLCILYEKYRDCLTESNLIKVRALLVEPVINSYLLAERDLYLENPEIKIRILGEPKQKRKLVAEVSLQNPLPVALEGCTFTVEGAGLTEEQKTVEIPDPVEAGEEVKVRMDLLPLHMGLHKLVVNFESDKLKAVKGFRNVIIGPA
Description: cell-based or functional assay.

For experiment [3], the target named is T3, mouse TG2 (mouse, UniProt P21981 1-686, limits assumed).
T3 sequence: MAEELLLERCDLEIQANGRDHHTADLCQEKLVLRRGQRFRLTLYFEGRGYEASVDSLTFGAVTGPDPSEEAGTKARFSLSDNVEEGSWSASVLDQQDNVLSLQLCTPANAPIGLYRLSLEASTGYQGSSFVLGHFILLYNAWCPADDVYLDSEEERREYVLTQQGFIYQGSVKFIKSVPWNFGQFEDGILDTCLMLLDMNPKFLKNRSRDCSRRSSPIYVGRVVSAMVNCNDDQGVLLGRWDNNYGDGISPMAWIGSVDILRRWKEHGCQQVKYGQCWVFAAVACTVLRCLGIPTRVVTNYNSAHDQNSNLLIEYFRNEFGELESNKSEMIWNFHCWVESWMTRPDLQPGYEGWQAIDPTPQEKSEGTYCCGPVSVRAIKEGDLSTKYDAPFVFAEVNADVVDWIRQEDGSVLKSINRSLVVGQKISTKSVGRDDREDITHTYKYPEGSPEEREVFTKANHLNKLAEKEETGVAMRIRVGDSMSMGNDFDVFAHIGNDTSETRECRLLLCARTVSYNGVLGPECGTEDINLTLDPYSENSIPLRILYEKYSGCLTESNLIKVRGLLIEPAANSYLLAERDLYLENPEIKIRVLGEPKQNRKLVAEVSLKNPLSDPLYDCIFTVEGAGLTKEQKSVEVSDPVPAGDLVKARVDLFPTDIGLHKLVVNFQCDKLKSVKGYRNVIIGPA
Description: western blot and ELISA. In general terms: A western blot detects proteins with antibodies after separation by electrophoresis.

Residue numbers refer to the chain shown, from its start.

B1: AG9 murine monoclonal antibody (antibody, V domains shown)
VH: EVQLQQSGPELVKPGASVKMSCRASGYTFTTYVIHWVKQKPGQGLEWIGYINPYNDGARYNEKFKGKATLTSDKSSTTAYMELSSLTSEDSAVYYCARLSSDYWGQGTTLTVSS
VL: DVLMTQNPLSLPVSLGDQASISCRSSRSIEHSNGNTYLEWYLQKPGQSPKFLIYKVSNRFSGVPDRFSGSGSGTDFTLRISSVEAEDLGVYYCFQGSHVPFTFGGGTKLEIK
notes: Mouse hybridoma IgG; heavy chain amplified with primer MHCG1, kappa light chain
As to B1, in experiment [1], the binding result was “no binding”. Also, the “IC50 of TG2 activity, 3H putrescine incorporation” value (“IC50 of TG2 activity” for short) in experiment [2] was found to be 4.87e-05 mg/ml IgG per ng TG2.

B2: EH6 murine monoclonal antibody (antibody, V domains shown)
VH: B1 VH with R23K, T31S, I34M, Y50F, A58T, R59K, S75A, L99F, D102G
VL: B1 VL with N7T, R27Q, E30V, F51L, R79K, S82R, E84G, F94L, G96V, G105S
notes: Mouse hybridoma IgG; heavy chain amplified with primer MHCG2B, kappa light chain
For B2, the binding result in experiment [3] is “binds”; in experiment [1] it was “no binding”. Besides, in experiment [2], the “IC50 of TG2 activity” value was 6.9e-05 mg/ml IgG per ng TG2.

B3: AH3 murine monoclonal antibody (antibody, V domains shown)
VH: B1 VH
VL: B1 VL
notes: as for B2
B3: in experiment [1], the binding result is recorded as “no binding”. Also, the “IC50 of TG2 activity” value in experiment [2] stood at 7.8e-05 mg/ml IgG per ng TG2.

B4: JE12 murine monoclonal antibody (antibody, V domains shown)
VH: B1 VH with R23K, T28R, T31S, I34M, P41S, R59K, T77S
VL: B1 VL with R27Q, S32I, S82R, V90I
notes: as for B1
Take B4: the binding result in experiment [3] is listed as “binds”; in experiment [1], “no binding”.

B5: DH2 murine monoclonal antibody (antibody, V domains shown)
VH: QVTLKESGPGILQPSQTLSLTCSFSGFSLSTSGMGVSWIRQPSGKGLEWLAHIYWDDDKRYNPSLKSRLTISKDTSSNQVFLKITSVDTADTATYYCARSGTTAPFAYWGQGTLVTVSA
VL: QIVLTQSPAIMSASPGEKVTMTCSASSSVSYMYWYQQKPGSSPRLLIYDTSNLASGVPVRFSGSGSGTSYSLTISRMEAEDAATFYCQQWSSSPLTFGAGTKLELK
notes: Mouse hybridoma IgG; heavy chain amplified with primer MHCG2B, kappa light chain; also called mDH001
As for B5, the results for the binding result in experiment [3] and in experiment [1] were “binds” and “no binding”, respectively. In addition, in experiment [2], the “IC50 of TG2 activity” value is 6.7e-05 mg/ml IgG per ng TG2.

B6: DD9 murine monoclonal antibody (antibody, V domains shown)
VH: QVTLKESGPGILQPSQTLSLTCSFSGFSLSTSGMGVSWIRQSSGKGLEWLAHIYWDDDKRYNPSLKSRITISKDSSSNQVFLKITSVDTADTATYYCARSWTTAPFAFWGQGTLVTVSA
VL: B5 VL with S30D, E78G, F85Y, S91N
notes: Mouse hybridoma IgG; heavy chain amplified with primer MHCG2A, kappa light chain; also called mDD9001
On to B6, for which the binding result is “binds” in experiment [3] and “no binding” in experiment [1]. Further, the “IC50 of TG2 activity” value in experiment [2] was found to be 5.24e-05 mg/ml IgG per ng TG2.

B7: AB1 murine monoclonal antibody (antibody, V domains shown)
VH: EVQLVESGGGLVKPGGSLKLSCAASGFTLSSSAMSWVRQTPDRRLEWVATISVGGGKTYYPDSVKGRFTISRDNAKNTLYLQMNSLRSEDTAMYYCAKLISLYWGQGTTLTVSS
VL: DIKMTQSPSSMYASLGERVTITCKASQDINSYLTWFQQKPGKSPKTLIYRTNRLFDGVPSRFSGSGSGQDFFLTISSLEYEDMGIYYCLQYDDFPYTFGGGTKLEIK
notes: Mouse hybridoma IgG; heavy chain amplified with constant region primer MHCG1, kappa light chain; also called mAB003
As for B7, the binding result in experiment [1] is “no binding”. For the same molecule, in experiment [2], the “IC50 of TG2 activity” value is 1.09e-05 mg/ml IgG per ng TG2.

B8: BB7 murine monoclonal antibody (antibody, V domains shown)
VH: AVQLVESGGGLVKPGGSLKLSCAASGIIFSSSAMSWVRQTPEKRLEWVATISSGGRSTYYPDSVKGRFTVSRDSAKNTLYLQMDSLRSEDTAIYYCAKLISPYWGQGTTLTVSS
VL: B7 VL with D1A, T20I, R50L, F55M, D70E, F72L, S77G, Y80H, D92V
notes: Mouse hybridoma IgG; heavy chain amplified with primer MHCG1, kappa light chain; also called mBB001
For the molecule B8, the binding result is “binds” in experiment [3] and “no binding” in experiment [1]. For the same molecule, the “IC50 of TG2 activity” value in experiment [2] amounted to 1.59e-05 mg/ml IgG per ng TG2.

B9: DC1 murine monoclonal antibody (antibody, V domains shown)
VH: EVQLVESGGGLVKPGGSLKLSCAASGFTLSTHAMSWVRQTPEKRLEWVATISSGGRSTYYPDSVKGRFTISRDNVKNTLYLQLSSLRSEDTAVYFCARLISTYWGQGTTLTVSS
VL: B7 VL with K3T, M11I, T46I, R50L, T51V, F55V, F71Y, F72A
notes: Mouse hybridoma IgG; heavy chain amplified with primer MHCG1, kappa light chain; also called mDC001
As for B9, the binding result in experiment [3] is “binds”. In addition, the “IC50 of TG2 activity” value in experiment [2] turned out to be 1.23e-05 mg/ml IgG per ng TG2.

Values taken from patent publication US10005846 (LIFEARC, dated 2018).
